Five sequences from patent US11504389 can be followed below.

Common to all, as to assay: cell_activity
For data set [1], the system named is ZFP SBS#57890 (synthetic). The following applies: human iPSC neurons, 3E5 VG/cell; poor mismatch tolerance.
Data set [2] relates to ZFP SBS#52389 (synthetic). The following applies: AAV2/9 CMV-52389-KRAB, 3E5 VG/cell, mouse cortical neurons.
Data set [3] concerns ZFP SBS#57880 (synthetic). Conditions: human iPSC neurons, 3E5 VG/cell.
The subject of data set [4] is ZFP SBS#52322 (synthetic). Conditions: mouse hippocampus in vivo, mean MAPT mRNA reduction.
Data set [5] concerns ZFP SBS#52366 (synthetic). The following applies: human iPSC neurons, 3E5 VG/cell.

In data set [1], “ACCCACCAGCTCCGGCAC (double strand) [57890 human MAPT site]” yielded an activity of 45 % repression. With “CCGTTGCGCCTGATTGATGCCCAGCTCC (double strand) [52389 target]”, the activity in data set [2] was found to be 98 % repression. Turning to “GCAGTCACCGCCACCCACC (double strand) [57880 human MAPT site]”, the activity in data set [3] came to 95 % repression. For “GTGGCGGAGACTGAGAGCGCGCGCGGCC (double strand) [52322 target]”, in data set [4], the activity is 66 % repression.

“TCTGTCGACTATCAG (double strand) [52366 human MAPT site]” gave an activity in data set [5] of 87 % repression.
